Tests used:
[1] = system: HeLa Kyoto; assay: melting temperature (median over replicates), in situ; higher = more thermally stable
[2] = system: HeLa Kyoto; assay: solubility in G1/S (NP-40 vs SDS abundance) (log2 ratio); higher = more soluble; details: cell cycle stage: G1/S
[3] = system: HeLa Kyoto; assay: solubility change mitosis vs G1/S (difference of NP-40 vs SDS log2 ratios) (log2 ratio difference); higher = more soluble in mitosis
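Throughout, for melting temperature (median over replicates), in situ: HeLa Kyoto cells synchronized by double thymidine or nocodazole block, proteins quantified by TMT10plex mass spectrometry, three independent biological replicates.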
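Throughout, for solubility change mitosis vs G1/S (difference of NP-40 vs SDS log2 ratios): synchronized HeLa Kyoto cells (double thymidine block for G1/S, nocodazole release for mitosis), protein amounts in NP-40 versus SDS lysates quantified by mass spectrometry, three biological replicates.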
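Throughout, for solubility in G1/S (NP-40 vs SDS abundance): HeLa Kyoto cells arrested at G1/S by double thymidine block, proteins quantified by TMT10plex mass spectrometry in mild NP-40 versus SDS extracts, three biological replicates.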

| Sequence | melting temperature ([1]; cell cycle stage: mitosis) | solubility in G1/S (log2) [2] | solubility change mitosis (log2) [3] | melting temperature ([1]; cell cycle stage: G1/S) |
| --- | --- | --- | --- | --- |
| MSEAMDQPAGGPGNPRPGEGDDGSMEPGTCQELLHRLRELEAENSALAQANENQRETYERCLDEVANHVVQALLNQKDLREECIKLKKRVFDLERQNQMLSALFQQKLQLTTGSLPQIPLTPLQPPSEPPASPSLSSTEGPAAPLPLGHCAGQREVCWEQQLRPGGPGPPAAPPPALDALSPFLRKKAQILEVLRALEETDPLLLCSPATPWRPPGQGPGSPEPINGELCGPPQPEPSPWAPCLLLGPGNLGGLLHWERLLGGLGGEEDTGRPWGPSRGPPQAQGTSSGPNCAPGSSSSSSSDEAGDPNEAPSPDTLLGALARRQLNLGQLLEDTESYLQAFLAGAAGPLNGDHPGPGQSSSPDQAPPQLSKSKGLPKSAWGGGTPEAHRPGFGATSEGQGPLPFLSMFMGAGDAPLGSRPGHPHSSSQVKSKLQIGPPSPGEAQGPLLPSPARGLKFLKLPPTSEKSPSPGGPQLSPQLPRNSRIPCRNSGSDGSPSPLLARRGLGGGELSPEGAQGLPTSPSPCYTTPDSTQLRPPQSALSTTLSPGPVVSPCYENILDLSRSTFRGPSPEPPPSPLQVPTYPQLTLEVPQAPEVLRSPGVPPSPCLPESYPYGSPQEKSLDKAGSESPHPGRRTPGNSSKKPSQGSGRRPGDPGSTPLRDRLAALGKLKTGPEGALGSEKNGVPARPGTEKTRGPGKSGESAGDMVPSIHRPLEQLEAKGGIRGAVALGTNSLKQQEPGLMGDPGARVYSSHSMGARVDLEPVSPRSCLTKVELAKSRLAGALCPQVPRTPAKVPTSAPSLGKPNKSPHSSPTKLPSKSPTKVVPRPGAPLVTKESPKPDKGKGPPWADCGSTTAQSTPLVPGPTDPSQGPEGLAPHSAIEEKVMKGIEENVLRLQGQERAPGAEVKHRNTSSIASWFGLKKSKLPALNRRTEATKNKEGAGGGSPLRREVKMEARKLEAESLNISKLMAKAEDLRRALEEEKAYLSSRARPRPGGPAPGPNTGLGQVQGQLAGMYQGADTFMQQLLNRVDGKELPSKSWREPKPEYGDFQPVSSDPKSPWPACGPRNGLVGPLQGCGKPPGKPSSEPGRREEMPSEDSLAEPVPTSHFTACGSLTRTLDSGIGTFPPPDHGSSGTPSKNLPKTKPPRLDPPPGVPPARPPPLTKVPRRAHTLEREVPGIEELLVSGRHPSMPAFPALLPAAPGHRGHETCPDDPCEDPGPTPPVQLAKNWTFPNTRAAGSSSDPLMCPPRQLEGLPRTPMALPVDRKRSQEPSRPSPTPQGPPFGGSRTPSTSDMAEEGRVASGGPPGLETSESLSDSLYDSLSSCGSQG [NCKAP5L] | 50.4 °C | 0.0838 | -0.128 |  |
| MSEVSCKKRDDYLEWPEYFMAVAFLSAQRSKDPNSQVGACIVNSENKIVGIGYNGMPNGCSDDVLPWRRTAENKLDTKYPYVCHAELNAIMNKNSTDVKGCSMYVALFPCNECAKLIIQAGIKEVIFMSDKYHDSDEATAARLLFNMAGVTFRKFIPKCSKIVIDFDSINSRPSQKLQ [DCTD] | 58.5 °C | 0.419 | 0.0667 | 59.8 °C |

Source: the supplement of paper PMC5998384
